In the assay the target is T1, human DLL3 antigen (human, UniProt Q9NYJ7 27-492, limits assumed).
T1 construct: also called immobilized human DLL3; recombinant human DLL3
T1 sequence (looked up): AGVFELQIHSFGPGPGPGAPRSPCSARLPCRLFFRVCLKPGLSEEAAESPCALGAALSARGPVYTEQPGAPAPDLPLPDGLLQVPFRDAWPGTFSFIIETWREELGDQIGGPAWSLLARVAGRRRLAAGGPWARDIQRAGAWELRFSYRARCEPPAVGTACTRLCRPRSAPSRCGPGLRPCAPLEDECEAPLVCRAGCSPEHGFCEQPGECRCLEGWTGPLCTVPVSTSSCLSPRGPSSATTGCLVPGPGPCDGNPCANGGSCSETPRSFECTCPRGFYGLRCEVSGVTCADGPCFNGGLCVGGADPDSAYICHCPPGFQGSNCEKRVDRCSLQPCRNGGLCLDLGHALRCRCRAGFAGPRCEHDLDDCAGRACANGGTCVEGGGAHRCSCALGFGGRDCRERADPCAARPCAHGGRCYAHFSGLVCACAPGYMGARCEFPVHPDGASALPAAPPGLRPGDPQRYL
The assay can be described thus: ELISA or flow cytometry screen.

B1: SC16.130 (antibody, V domains shown)
VH: EVQLQQSGPELVKPGASVKMSCKASGYTFTSYVMHWVKQKPGQGLEWIGYINPYNDGTEYNEKFKGKATLTSDKSSSTAYMELSSLTSEDSAVYYCARGVYDGYSYFDYWGQGTTLTVSS
VL: DIQLTQSPASLSASVGETVTITCRASGSIHNYLAWYQQKQGKSPQLLVYNAKTLVDGVPSRFSGSGSGTQYSLKINSLQPEDFGYYYCQHFWTTPWTFGGGTKLEIK
notes: murine mAb
Turning to B1, the binding result is “binds”.

B2: SC16.136 (antibody, V domains shown)
VH: EFQLQQSGPELVKPGASVKMSCKASGYTFTSYVMHWVKQKPGQGLEWIGYINPYNDGTKYNEKFKGKATLTSDKSSSTAYMELSSLTSEDSAVYYCARDRSGYEDYYGMDYWGQGTSVTVSS
VL: DIQMTQSPASLSASVGETVTITCRASGNIHNYLAWYQQKQGKSPHLLVYNAKTLADGVPSRFSGSGSGTQYSLKINSLQPEDFGSYYCQHFWSTPWTFGGGTKLEIK
notes: murine mAb
Take B2: the binding result is given as “binds”.

B3: SC16.137 (antibody, V domains shown)
VH: EVQLVESGGDLVKPGGSLKLSCAASGFTFSSYGMSWVRQTPDKRLEWVATISSGGSYTYYPDSVKGRFTISRDNAKNTLYLQMSSLKSEDTAMYYCARRRADAMDYWGQGTSVTVSS
VL: QIVLTQSPAIMSASLGEEITLTCSASSSVSYMHWYQQKSGTSPKLLIYSTSNLASGVPSRFSGSGSGTFYSLTISSVEAEDAADYYCHQWSSYHTFGGGTKLEIKR
notes: murine mAb
Take B3: the binding result is given as “binds”.

B4: SC16.135 (antibody, V domains shown)
VH: QVQLQQSGAELVRPGTSVKVSCKASGYAFTNYLIEWVKQRPGQGLEWIGVINPGSGGTNSNEKFKAKATLTADKSSSTAYMQLSSLTSADSAVYFCARSDYDYAFYAMDYWGQGTSVTVSS
VL: DIKMTQSPSSMYASLGERVTITCKASQDINRYLSWFQQKPGKSPKTLIYRANRLVDGVPSRFSGSGSGQDYSLTISSLEYEDMGIYYCLQYDEFPFTFGSGTKLEIK
notes: murine mAb
B4: the binding result is “binds”.

B5: SC16.141 (antibody, V domains shown)
VH: QVQLKQSGPGLVAPSQSLFITCTVSGFSLTSYEINWVRQPPGKGLEWLGVIWTGGSTNYNSALISRLSISKDNSKSLVFLKMNSLQTDDTAIYYCVRGVYAMDYWGQGTSVTVSS
VL: DIKMTQSPSSMYASLGERVTITCKASQDINSYLSWFQQKPGKSPKTLIYRANRLVDGVPSRFSGSGSGQDYSLTISSLEYEDMGIYYCLQYDEFPFTFGSGTKLEIK
notes: murine mAb
On to B5, for which the binding result was “binds”.

B6: SC16.140 (antibody, V domains shown)
VH: QVQLQQSGPELVRPGASVKMSCKASGYTFTSYWMHWVKQRPGQGLEWIGMIDPSNSETRLNQKFKDKATLNVDKSSNTAYMQLSSLTSEDSAVYYCAVMDYYFDYWGQGTTLTVSS
VL: DIVLTQSLASLAVSLGQRATISCRASKSVSTSGYSYMHWYQQKPGQPPKLLIYLASNLESGVPARFSGSGSGTDFTLNIHPVEDEDAATYYCQHSRELPFTFGGGTKLEIKR
notes: murine mAb
For B6, the binding result is given as “binds”.

B7: SC16.13 (antibody, V domains shown)
VH: QVTLKESGPGILQPSQTLSLTCSFSGFSLSTSGMGVGWIRQPSGKGLEWLAHIWWDDVKRYNPALKSRLTISKDTSSSQVFLKIASVDTADTATYYCARIVSFDNDVVSAMDYWGQGTSVTVSS
VL: QIVLTQSPALVSASPGEKVTMTCSASSSVSYMYWYQQKPRSSPKPWIYLTSNLASGVPARFSGSGSGTSYSLTISSMEAEDAATYYCQQWRSNPFTFGSGTKLEIK
notes: murine mAb
For the molecule B7, the binding result is recorded as “binds”.

B8: SC16.133 (antibody, V domains shown)
VH: QVQLKESGPGLVAPSQSLSITCTVSGFSLTNYAVHWVRQSPGKGLEWLGVIWSDGSTDYNAAFISRLSISKDNSKSQVFFKMNSLQADDTAMYYCARKKGGWFPWFAYWGQGTLVTVSA
VL: SIVMTQTPKFLLVSAGDRVTITCKASQSVSNDVAWYQQKPGQSPKLLIYCASNRYTGVPDRFTGSGYGTDFTFTISTVQAEDLAVYFCQQDYSSPLTFGAGTKLELK
notes: murine mAb
Turning to B8, the binding result was “binds”.

B9: SC16.144 (antibody, V domains shown)
VH: QIQLVQSGPELKKPGETVKISCKASGYTFTNYGMNWVKQAPGKGLKWVGWINTYTGEPTYADDFKGRFAFSLETSASTAYLQIDNLKNEDTATYFCARVGDYVGFDYWGQGTTLTVSS
VL: SIVMTQTPKFLLVSAGDRVTITCKASQSVSNDVGWYQQKPGQSPKLLIYYASNRYNGVPDRFTGSGYGTDFTFTISTVQAEDLAVYFCQQDYSSPWTFGGGTKLEIK
notes: murine mAb
B9: the binding result is given as “binds”.

B10: SC16.142 (antibody, V domains shown)
VH: EVQLQQSGPELVKPGASVKISCKASGYTFTDYNMHWVKQSHGKSLEWIGFFYPYNGNTVYSQKFKSKATLTVDNSSSTAYMELRSLTSEDSAVYYCARLNWEGYWGQGTTLTVSS
VL: DIKMTQSPSSMYASLGERVTITCKASQDINNYLSWFQQKPGKSPKTLIYRANRLVDGVPSRFSGSGSGQDYSLTISSLEYEDMGIYYCLQYDEFPYTFGGGTKLEIKR
notes: murine mAb
As for B10, the binding result is reported as “binds”.

B11: SC16.132 (antibody, V domains shown)
VH: QVQLKESGPGLVAPSQSLSITCTVSGFSLTDYGVSWIRQPPGKGLEWLGVVWGGGSTYYNSALKSRLSITKDNSKSQVFLKMNSLQTDDTAMYYCAKQRGQYGAYWGQGTLVTVSA
VL: DIQMTQSPASQSASLGESVTITCLASQTIGTWLAWYQQKPGKSPQLLIYAATSLADGVPSRFSGSGSGTKFSFKISSLQAEDFVSYYCQQLYSTPWTFGGGTKLEIK
notes: murine mAb
For the molecule B11, the binding result was “binds”.

B12: SC16.138 (antibody, V domains shown)
VH: QVQLKESGPGLVAPSQSLSITCTVSGFSLTDYGVSWIRQPPGKGLEWLGVVWGGGSTYYNSALKSRLSISKDNSKSQVFLKMNSLQTDDTAMYYCAKQRGQYGAYWGQGTLVTVSA
VL: DIQMTQSPASQSASLGESVTITCLASQTIGTWLAWYQQKPGKSPQLLIYSATSLADGVPSRFSGSGSGTKFSFKISSLQAEDFVSYYCQQLYSTPWTFGGGTKLEIK
notes: murine mAb
As for B12, the binding result is recorded as “binds”.

B13: SC16.126 (antibody, V domains shown)
VH: QVQMKESGPGLVAPSQSLSITCTVSGSSLTNYGVHWVRQPPGKGLEWLGVIWAGGSTNYNSALMSRLSISKDNSKSQVFLKMNSLQTDDTAMYYCARDWEGWFAYWGQGTLVTVSA
VL: DIQMNQSPSSLSASLGDTITITCHASQNINVWLSWYQQKPGNIPKLLIYKASNLHTGVPSRFSGSGSGTGFTLTISSLQPEDIATYYCQQGQSYPFTFGSGTKLEIK
notes: murine mAb
Regarding B13, the binding result was “binds”.

B14: SC16.149 (antibody, V domains shown)
VH: QVQLKESGPGLVAPSQSLSITCAVSGFSLTSFGVHWVRQPPGKGLEWLGVIWAGGSTNYYSALMSRLSISIDNSKSQVFLKMNSLQTDDTAMYYCARDWEGWFAYWGQGTLVTVSA
VL: DIQMNQSPSSLSASLGDTITITCHASQNINVWLSWYQQKPGNIPKLLIYKASHLHTGVPSRLSGSGSGTGFTLTISSLQPEDIATYYCQQGQSYPFTFGSGTTLEIK
notes: murine mAb
In the case of B14, the binding result is given as “binds”.

B15: SC16.143 (antibody, V domains shown)
VH: QVQLQQSGPELVKPGASVRISCKASGYTFTSYYIHWVKQRPGQGLEWIGWIYPGNGNTKYNEKFKGKATLTADKSSSTAYMQISSLTSEDSAVYFCARERWLLLWFAYWGQGTLVTVSA
VL: DVLMTQTPLSLPVSLGDQASISCRSSQSIVHSNGNTYLEWYLQKPGQSPKLLIYKVSNRFSGVPDRFSGSGSGTDFTLKISRVEAEDLGVYYCFQGSHVPLTFGAGTKLELK
notes: murine mAb
B15: the binding result is “binds”.

(Values after US20140370037A1 (published 2014).)
